# EP1073891B1, “METHOD OF PREDICTING RECEPTOR MODULATING ACTIVITY” (Duke University, priority 1998, dated 1999)
# Experiments:
# ER = format: cell-based
# MCF-7 cell xenografts = experiment: Growth of MCF-7 cell xenografts in A-thymic nude mice; format: in vivo
# [1] = In vivo tissue pharmacology of antiestrogen (uterus, bone, cardiovascular system); settings: assayed in vivo
# ERα [2] = molecular target: T1, ERα (Homo sapiens, UniProt P03372); format: binding; set-up: purchased PanVera Corporation, Madison, WI; settings: Table 14, ERα and ERβ; progesterone 1 µM
# T1 sequence (P03372 1-595): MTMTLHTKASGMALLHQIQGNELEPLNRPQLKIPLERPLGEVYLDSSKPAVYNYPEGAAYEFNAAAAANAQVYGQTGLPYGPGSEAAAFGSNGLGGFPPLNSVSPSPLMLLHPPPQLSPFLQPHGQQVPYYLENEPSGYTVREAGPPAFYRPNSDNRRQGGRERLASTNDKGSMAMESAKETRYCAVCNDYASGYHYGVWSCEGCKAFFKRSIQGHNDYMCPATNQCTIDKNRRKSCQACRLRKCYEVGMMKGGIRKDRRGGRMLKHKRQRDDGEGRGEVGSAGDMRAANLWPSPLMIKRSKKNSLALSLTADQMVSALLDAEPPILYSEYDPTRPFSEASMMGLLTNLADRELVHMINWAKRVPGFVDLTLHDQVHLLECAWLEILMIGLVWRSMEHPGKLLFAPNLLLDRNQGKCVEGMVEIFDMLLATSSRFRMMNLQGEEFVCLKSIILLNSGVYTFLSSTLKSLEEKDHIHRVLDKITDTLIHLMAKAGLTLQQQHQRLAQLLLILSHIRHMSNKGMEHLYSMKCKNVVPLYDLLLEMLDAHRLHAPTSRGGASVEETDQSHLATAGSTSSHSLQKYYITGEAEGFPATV
# Description: Oligonucleotides corresponding to the vitellogenin ERE, biotin-[…] (forward) and biotin-[…] (reverse), were synthesized by Genosys.
# These assays were conducted by phage ELISA.
# Res. Treat. […] Jordan, Pharmacological Rev. […] And Metab.
# Bound phage were detected as described previously.
# [3] = molecular target: T2, estrogen receptor α (ERα) (Homo sapiens, UniProt P03372); experiment: LexA yeast two hybrid, β-galactosidase activity assay (Example 3); format: cell-based
# T2 construct: The full length estrogen receptor was subcloned in frame into the EcoRI and XhoI sites of pJG4-5; expressed in transfected cells; host or cells: Saccharomyces cerevisiae EGY48
# T2 sequence (P03372 1-595): T1 sequence (P03372 1-595)
# Source text: The LexA system that we employ utilizes a bacterial DNA binding protein domain, LexA, and a bacterially derived transcriptional activation sequence, B42. Proteins or peptides of interest are fused in frame with these domains and expressed using episomal plasmids in a yeast cell. The interactions between these proteins/peptides of interest are registered by monitoring the level of the reporter gene product, β-galactosidase, by an enzymatic assay. The differences in the levels of β-galactosidase activities reflect the relative strengths of the protein interactions.
# The yeast strains used in this study was EGY48 (MAT a trp1 his3 ura3 leu2::61exAops-LEU2) purchased from OriGeneTechnologies for yeast two hybrid analysis. This strain contains 6 LexA operators upstream of the LEU2 gene in the yeast genome and provides high sensitivity in detecting protein-protein interactions in the LexA two hybrid system. The plasmids used in this study were pEG202 (LexA-DNA binding domain), pJG4-5 (B42-activation domain), and the plasmid containing a β-galactosidase reporter, pJK103 (OriGene Technologies). The full length estrogen receptor was subcloned in frame into the EcoRI and XhoI sites of pJG4-5 to generate an ERα-B42 activation domain fusion. ERα was subcloned in the activation domain plasmid because ERα was able to autoactivate reporters when fused to the LexA DNA binding domain.
# The peptide sequences used in this study were generated from synthetic oligos filled in by T7 Sequenase (Life Science) and subcloned into the EcoRI-XhoI sites of pEG202. The synthetic oligos were: [formula] [formula] [formula] [formula] The complementary synthetic oligo used to generate double stranded DNA was 3'XhoPrim, 5'-[…]. Each 5'-oligo was annealed to the 3'-oligo by heating to 90 °C for 15 minutes and cooled slowly to 35 °C. T7 sequenase was added and the fill-in reaction allowed to proceed at 30 °C for 30 minutes. The reaction was terminated by heat denaturing the enzyme at 65 °C for 1 hour, restriction digests were performed and the resulting DNA fragments subcloned into pEG202 to generate peptide-LexA DNA binding domain fusions.
# The culture was diluted to ~2x10^6 cells/ml in the same media and allowed to grow at 30 °C until the cultures reached a density of ~1x10^7 cells/ml (∼4 hours). The yeast cells were pelleted by centurifugation, washed with extraction buffer (60 mM Na2HPO4, 40 mMNaH2PO4, 10 mM KCl, 1 mM MgSO4, 1mM PMSF, 7 mM 2-mercaptoethanol) and suspended in 200 µl of extraction buffer. 100 µl of acid-washed glass beads were added and cells were lysed by vigorous agitation for 10 minutes at 4 °C. Cellular debris was pelleted by centrifugation and the supernatant transferred to a clean tube. 10 µg of total cellular protein was diluted into complete Z buffer (60 mM Na2HPO4, 40 mMNaH2PO4 , 10 mM KCl, 1 mM MgSO4, 7 mM 2-mercaptoethanol) to a volume of 100 µl in a 96-well microplate. 80 µg of o-nitrophenyl-β-D-pyranoside (ONPG) in 20 µl was added to each well to initiate color development.
# 10µg of each protein extract was assayed for β-galactosidase activity using o-nitrophenyl-b-D-pyranoside as substrate. Activity units are defied as 1000* Abs405/minutes/mg/protein.
# Values are in beta-galactosidase units (MOD/min/mg)
# full length ER-α = molecular target: T3, full length ER-α (Homo sapiens, UniProt P03372); experiment: Affinity selection and phage ELISA of X7-LXXLL-X7 library on estradiol treated ER (Example 101.1); format: binding
# T3 construct: Baculovirus expressed full length ER-α; host or cells: baculovirus expression
# T3 sequence (P03372 1-595): T1 sequence (P03372 1-595)
# Description: M13 phage-based random peptide libraries were incubated with target proteins in the wells, ER binding phage were retained while the unbound phage were washed away. Bound phage were eluted by low pH buffer, amplified in DH5αF' cells and subjected to subsequent round of selection. The selection processes were repeated 2-3 times to enrich for EB bonding phage. Individual phage were plaque purified, amplified and their binding characteristics were examined by ELISA.
# full length ER = molecular target: T4, full length ER (Homo sapiens, UniProt P03372); experiment: Mapping of probe binding sites, phage ELISA on directly immobilized receptor
# T4 construct: amino terminal domain (1-184) fused to GST, and the full length ER; purchased PanVera Corporation, Madison, WI
# T4 sequence (P03372 1-595): T1 sequence (P03372 1-595)
# Description: Assays were conducted using the format described in Example 2.3, except that the domains were directly immobilized on the plastic surface of the well. Assays were conducted as for phage ELISA (Ex. 2.3).
# ERα [4] = molecular target: T1, ERα; experiment: Phage ELISA on plastic-immobilized ER, with or without estradiol, agonists or SERMs (Examples 1.3a, 1.4); format: binding; set-up: purchased PanVera Corporation, Madison, WI
# Source text: ER alpha (Panvera Corp.) was immobilized on Immulon 4 plastic plates (Dynatech) for the phage affinity selection as described in patent application Fowlkes, 09/050,359. Peptide sequences obtained for binding to the unliganded (unactivated) receptor are listed below (Table 1).
# Phage expressing distinct peptide sequences were classified according to a number of different parameters.
# The effect of agonists and SERMs on the binding of phage from each of the 5 classes described above was investigated.
# The following fingerprints were identified (Table 6). The data are based on the relative change in binding (as determined by an increase or decrease in absorbance) compared to the unliganded receptor. The number of + or - signs indicates the degree and the direction of the change in signal; +/- indicates no significant change.
compound,measurement,setting,value
CC/C(=C(\c1ccccc1)c1ccc(/C=C/C(=O)O)cc1)c1ccccc1 [GW5638],AF-1 and AF-2 agonist activity,ER,devoid of AF-1 and AF-2 agonist activity
same,inhibition of tamoxifen partial agonist activity,ER; assayed in vitro,inhibits tamoxifen partial agonist activity under all conditions examined
same,growth of MCF-7 cell xenografts,MCF-7 cell xenografts,effectively inhibited
same,activity in bone and the cardiovascular system,[1],functions as an estrogen
same,uterotrophic activity,[1],does not display uterotrophic activity
CC(=O)[C@H]1CC[C@H]2[C@@H]3CCC4=CC(=O)CC[C@]4(C)[C@H]3CC[C@]12C [progesterone],binding pattern of the probes (fingerprint) compared with buffer,ERα [2],indistinguishable from that produced by buffer
GHEPLTLLERLLMDDKQAV [Peptide F6],"Peptide Interactions with ER Alpha, beta-galactosidase units, value",[3]; 4-hydroxy Tamoxifen,20267 MOD/min/mg
same,"Peptide Interactions with ER Alpha, beta-galactosidase units, value",[3]; Estradiol,38883 MOD/min/mg
same,"Peptide Interactions with ER Alpha, beta-galactosidase units, value",[3]; No Addition,30983 MOD/min/mg
same,"Peptide Interactions with ER Alpha, beta-galactosidase units, value",[3]; Tamoxifen Citrate,11947 MOD/min/mg
same,affinity for ERα,full length ER-α; affinity-selected peptide,high affinity
SSEYCFYWDSAHCSR [α I],binding to the full length protein,full length ER,binds only to the full length protein
SSNHQSRLIELLSR [ER4],binding to ligand occupied ER,"full length ER-α; agonist, partial agonist or antagonist occupied ER",binds to agonist occupied ER but not partial agonist- or antagonist-occupied ER
SSVTKKALTIAKDSR,binding of ER in presence of estradiol,ERα [4],weak binders
SSYQWETHSDKWRSR,binding of ER in presence of estradiol,ERα [4],weak binders
